Key:
Assay in all cases: cell-based or functional assay
[1] = target: HIV-1 Env of isolate 92TH021 (subtype AE) (HIV-1)
[2] = target: HIV-1 Env of isolate 92UG031 (subtype A) (HIV-1)
[3] = target: HIV-1 Env of isolate 92UG037 (subtype A) (HIV-1)
[4] = target: HIV-1 Env of isolate 92UG114 (subtype D) (HIV-1)
[5] = target: HIV-1 Env of isolate 92WR009 (subtype A) (HIV-1)
[6] = target: HIV-1 Env of isolate 92WR020 (subtype A) (HIV-1)
[7] = target: HIV-1 Env of isolate 92WR021 (subtype A) (HIV-1)
[8] = target: HIV-1 Env of isolate 92WR024 (subtype A) (HIV-1)
[9] = target: HIV-1 Env of isolate 92WR026 (subtype A) (HIV-1)
[10] = target: HIV-1 Env of isolate 93UG077 (subtype A) (HIV-1)
[11] = target: HIV-1 Env of isolate 93WR029 (subtype A) (HIV-1)
[12] = target: HIV-1 Env of isolate 94 KE 105 (subtype AC) (HIV-1)
[13] = target: HIV-1 Env of isolate 94UG103 (subtype A) (HIV-1)
[14] = target: HIV-1 Env of isolate CMU02 (subtype AE) (HIV-1)
[15] = target: HIV-1 Env of isolate MGRM-AE-001 (subtype AE) (HIV-1)
[16] = target: HIV-1 Env of isolate MGRM-AE-002 (subtype AE) (HIV-1)
[17] = target: HIV-1 Env of isolate MGRM-AE-003 (subtype AE) (HIV-1)
[18] = target: HIV-1 Env of isolate MGRM-AE-004 (subtype AE) (HIV-1)
[19] = target: HIV-1 Env of isolate MGRM-AE-005 (subtype AE) (HIV-1)
[20] = target: HIV-1 Env of isolate MGRM-AE-006 (subtype AE) (HIV-1)
[21] = target: HIV-1 Env of isolate MGRM-AE-007 (subtype AE) (HIV-1)
[22] = target: HIV-1 Env of isolate MGRM-AE-008 (subtype AE) (HIV-1)
[23] = target: HIV-1 Env of isolate MGRM-D-001 (subtype D) (HIV-1)
[24] = target: HIV-1 Env of isolate MGRM-D-002 (subtype D) (HIV-1)
[25] = target: HIV-1 Env of isolate MGRM-D-003 (subtype D) (HIV-1)
[26] = target: HIV-1 Env of isolate MGRM-D-004 (subtype D) (HIV-1)
[27] = target: HIV-1 Env of isolate MGRM-D-005 (subtype D) (HIV-1)
[28] = target: HIV-1 Env of isolate MGRM-D-008 (subtype D) (HIV-1)
[29] = target: HIV-1 Env of isolate MGRM-D-011 (subtype D) (HIV-1)
[30] = target: HIV-1 Env of isolate MGRM-D-012 (subtype D) (HIV-1)
[31] = target: HIV-1 Env of isolate MGRM-D-013 (subtype D) (HIV-1)
[32] = target: HIV-1 Env of isolate MGRM-D-014 (subtype D) (HIV-1)
[33] = target: HIV-1 Env of isolate MGRM-D-016 (subtype D) (HIV-1)
[34] = target: HIV-1 Env of isolate MGRM-D-018 (subtype D) (HIV-1)
[35] = target: HIV-1 Env of isolate MGRM-D-019 (subtype D) (HIV-1)
[36] = target: HIV-1 Env of isolate MGRM-D-020 (subtype D) (HIV-1)
[37] = target: HIV-1 Env of isolate MGRM-D-021 (subtype D) (HIV-1)
[38] = target: HIV-1 Env of isolate MGRM-D-022 (subtype D) (HIV-1)
[39] = target: HIV-1 Env of isolate MGRM-D-024 (subtype D) (HIV-1)
[40] = target: HIV-1 Env of isolate MGRM-D-026 (subtype D) (HIV-1)
[41] = target: HIV-1 Env of isolate MGRM-D-028 (subtype D) (HIV-1)
[42] = target: HIV-1 Env of isolate MGRM-D-029 (subtype D) (HIV-1)
[43] = target: HIV-1 Env of isolate MGRM-F1-004 (subtype F) (HIV-1)
[44] = target: HIV-1 Env of isolate MGRM-F1-006 (subtype F) (HIV-1)
[45] = target: HIV-1 Env of isolate MGRM-F1-008 (subtype F) (HIV-1)
[46] = target: HIV-1 Env of isolate MGRM-F1-010 (subtype F) (HIV-1)
[47] = target: HIV-1 Env of isolate MGRM-F1-012 (subtype F) (HIV-1)
[48] = target: HIV-1 Env of isolate MGRM-F1-013 (subtype F) (HIV-1)
[49] = target: HIV-1 Env of isolate MGRM-F1-014 (subtype F) (HIV-1)
[50] = target: HIV-1 Env of isolate MGRM-F1-015 (subtype F) (HIV-1)
[51] = target: HIV-1 Env of isolate MGRM-F1-016 (subtype F) (HIV-1)
[52] = target: HIV-1 Env of isolate MGRM-F1-017 (subtype F) (HIV-1)
[53] = target: HIV-1 Env of isolate MGRM-F1-018 (subtype F) (HIV-1)
[54] = target: HIV-1 Env of isolate MGRM-F1-020 (subtype F) (HIV-1)
[55] = target: HIV-1 Env of isolate MGRM-F1-021 (subtype F) (HIV-1)
[56] = target: HIV-1 Env of isolate MGRM-F1-022 (subtype F) (HIV-1)
[57] = target: HIV-1 Env of isolate MGRM-F1-023 (subtype F) (HIV-1)
[58] = target: HIV-1 Env of isolate VLGCA1 (subtype A) (HIV-1)

PGT-143 (4980_N08) (antibody), sequence (VH): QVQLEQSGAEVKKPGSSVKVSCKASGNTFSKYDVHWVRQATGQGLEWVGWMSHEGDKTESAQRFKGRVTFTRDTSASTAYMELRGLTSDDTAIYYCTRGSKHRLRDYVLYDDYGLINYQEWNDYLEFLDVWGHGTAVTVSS
PGT-143 (4980_N08) (antibody), sequence (VL): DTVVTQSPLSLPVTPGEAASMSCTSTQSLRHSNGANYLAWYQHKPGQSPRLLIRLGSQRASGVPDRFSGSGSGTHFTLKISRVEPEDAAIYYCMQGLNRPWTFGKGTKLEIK

Question: For PGT-143 (4980_N08) (antibody), which IC50 (pseudovirus neutralization) [1] is on record?
Answer: 0.003 µg/mL

Question: What about the IC50 (pseudovirus neutralization) [2] of the same substance?
Answer: 0.095 µg/mL

Question: And the IC50 (pseudovirus neutralization) [3]?
Answer: 0.854 µg/mL

Question: What about the IC50 (pseudovirus neutralization) [4] of the same substance?
Answer: > 50 µg/mL

Question: And the IC50 (pseudovirus neutralization) [5]?
Answer: 0.01 µg/mL

Question: And the IC50 (pseudovirus neutralization) [6]?
Answer: > 50 µg/mL

Question: And the IC50 (pseudovirus neutralization) [7]?
Answer: > 50 µg/mL

Question: And the IC50 (pseudovirus neutralization) [8]?
Answer: 0.122 µg/mL

Question: And the IC50 (pseudovirus neutralization) [9]?
Answer: 5.36 µg/mL

Question: What about the IC50 (pseudovirus neutralization) [10] of the same substance?
Answer: > 50 µg/mL

Question: And the IC50 (pseudovirus neutralization) [11]?
Answer: 0.053 µg/mL

Question: What about the IC50 (pseudovirus neutralization) [12] of the same substance?
Answer: 0.368 µg/mL

Question: And the IC50 (pseudovirus neutralization) [13]?
Answer: > 50 µg/mL

Question: What about the IC50 (pseudovirus neutralization) [14] of the same substance?
Answer: > 50 µg/mL

Question: And the IC50 (pseudovirus neutralization) [15]?
Answer: > 50 µg/mL

Question: And the IC50 (pseudovirus neutralization) [16]?
Answer: > 50 µg/mL

Question: And the IC50 (pseudovirus neutralization) [17]?
Answer: > 50 µg/mL

Question: And the IC50 (pseudovirus neutralization) [18]?
Answer: 0.002 µg/mL

Question: And the IC50 (pseudovirus neutralization) [19]?
Answer: > 50 µg/mL

Question: And the IC50 (pseudovirus neutralization) [20]?
Answer: > 50 µg/mL

Question: What about the IC50 (pseudovirus neutralization) [21] of the same substance?
Answer: 13.6 µg/mL

Question: And the IC50 (pseudovirus neutralization) [22]?
Answer: 0.135 µg/mL

Question: What about the IC50 (pseudovirus neutralization) [23] of the same substance?
Answer: > 50 µg/mL

Question: And the IC50 (pseudovirus neutralization) [24]?
Answer: > 50 µg/mL

Question: And the IC50 (pseudovirus neutralization) [25]?
Answer: > 50 µg/mL

Question: What about the IC50 (pseudovirus neutralization) [26] of the same substance?
Answer: > 50 µg/mL

Question: And the IC50 (pseudovirus neutralization) [27]?
Answer: 1.41 µg/mL

Question: And the IC50 (pseudovirus neutralization) [28]?
Answer: 0.153 µg/mL

Question: And the IC50 (pseudovirus neutralization) [29]?
Answer: > 50 µg/mL

Question: What about the IC50 (pseudovirus neutralization) [30] of the same substance?
Answer: > 50 µg/mL

Question: What about the IC50 (pseudovirus neutralization) [31] of the same substance?
Answer: 0.386 µg/mL

Question: And the IC50 (pseudovirus neutralization) [32]?
Answer: 0.009 µg/mL

Question: What about the IC50 (pseudovirus neutralization) [33] of the same substance?
Answer: > 50 µg/mL

Question: What about the IC50 (pseudovirus neutralization) [34] of the same substance?
Answer: > 50 µg/mL

Question: And the IC50 (pseudovirus neutralization) [35]?
Answer: 0.277 µg/mL

Question: And the IC50 (pseudovirus neutralization) [36]?
Answer: > 50 µg/mL

Question: And the IC50 (pseudovirus neutralization) [37]?
Answer: > 50 µg/mL

Question: And the IC50 (pseudovirus neutralization) [38]?
Answer: > 50 µg/mL

Question: What about the IC50 (pseudovirus neutralization) [39] of the same substance?
Answer: > 50 µg/mL

Question: What about the IC50 (pseudovirus neutralization) [40] of the same substance?
Answer: 44.6 µg/mL

Question: And the IC50 (pseudovirus neutralization) [41]?
Answer: > 50 µg/mL

Question: And the IC50 (pseudovirus neutralization) [42]?
Answer: 0.2 µg/mL

Question: And the IC50 (pseudovirus neutralization) [43]?
Answer: 0.036 µg/mL

Question: What about the IC50 (pseudovirus neutralization) [44] of the same substance?
Answer: 12.3 µg/mL

Question: What about the IC50 (pseudovirus neutralization) [45] of the same substance?
Answer: 0.189 µg/mL

Question: And the IC50 (pseudovirus neutralization) [46]?
Answer: > 50 µg/mL

Question: What about the IC50 (pseudovirus neutralization) [47] of the same substance?
Answer: > 50 µg/mL

Question: What about the IC50 (pseudovirus neutralization) [48] of the same substance?
Answer: 0.013 µg/mL

Question: And the IC50 (pseudovirus neutralization) [49]?
Answer: 0.001 µg/mL

Question: What about the IC50 (pseudovirus neutralization) [50] of the same substance?
Answer: > 50 µg/mL

Question: What about the IC50 (pseudovirus neutralization) [51] of the same substance?
Answer: > 50 µg/mL

Question: And the IC50 (pseudovirus neutralization) [52]?
Answer: 26.3 µg/mL

Question: And the IC50 (pseudovirus neutralization) [53]?
Answer: 0.701 µg/mL

Question: What about the IC50 (pseudovirus neutralization) [54] of the same substance?
Answer: 0.98 µg/mL

Question: What about the IC50 (pseudovirus neutralization) [55] of the same substance?
Answer: > 50 µg/mL

Question: What about the IC50 (pseudovirus neutralization) [56] of the same substance?
Answer: 0.082 µg/mL

Question: And the IC50 (pseudovirus neutralization) [57]?
Answer: 0.972 µg/mL

Question: What about the IC50 (pseudovirus neutralization) [58] of the same substance?
Answer: 17.4 µg/mL

From US20160264649A1
